As usually defined, the EC50 is the concentration at which the effect is half-maximal. A higher EC50 goes with weaker potency. As usually defined, the Kd is a measure of binding affinity in units of concentration. A lower Kd goes with a tighter complex. For orientation: koff means the first-order rate constant of dissociation. Low readings indicate a long-lived complex, high ones a short-lived complex. As usually defined, the kon is a measure of how fast the partners come together. A low value points to slower complex formation.

Like-named read-outs stand apart in the source and are kept apart here.

The results in this text go back to patent US20230357364A1 (INTERNATIONAL AIDS VACCINE INITIATIVE, published 2023).

In test [1] the target is SARS-CoV-2 RBD (RBD-2) (SARS-CoV-2). The experiment in a line: ELISA. (In general: ELISA stands for enzyme-linked immunosorbent assay.)
In a further test the target is SARS-CoV-1 RBD (RBD-1) (SARS-CoV-1). As to the kind of experiment: ELISA.
For test [2], the target named is T1, SARS-CoV-2 spike on pseudovirus or live virus (USA-WA1/2020, WT) (SARS-CoV-2, UniProt P0DTC2 14-1273). The experiment in a line: cell-based or functional assay.
The target in test [3] is T2, SARS-CoV-1 spike on pseudovirus (SARS-CoV-1, UniProt P59594 14-1255). As to the kind of experiment: cell-based or functional assay.
Test [4] deals with SARS-CoV-2 RBD (RBD-2) (SARS-CoV-2). As to the kind of experiment: SPR, Fc-captured IgG. On the technique in general: In SPR one partner is held on a chip, and binding of the other changes the refractive index at the surface.
The target is the same in test [5]. As to the kind of experiment: flow, HeLa-ACE2, mAb:RBD=2:1.
In test [6] the target is T1, SARS-CoV-2 spike on pseudovirus or live …. The experiment in a line: cell-based or functional assay. The source holds these as a separate data set.
For test [7], the target named is T2, SARS-CoV-1 spike on pseudovirus. As to the kind of experiment: cell-based or functional assay. This is another data set of the same source.
In test [8] the target is SARS-CoV-2 RBD (RBD-2) (SARS-CoV-2). As to the kind of experiment: flow, HeLa-ACE2, mAb:RBD=4:1.
Test [9] concerns the target T1, SARS-CoV-2 spike on pseudovirus or live …. As to the kind of experiment: cell-based or functional assay. The source holds these as a separate data set.

B1: L12.bP13A12 (antibody, V domains shown)
VH: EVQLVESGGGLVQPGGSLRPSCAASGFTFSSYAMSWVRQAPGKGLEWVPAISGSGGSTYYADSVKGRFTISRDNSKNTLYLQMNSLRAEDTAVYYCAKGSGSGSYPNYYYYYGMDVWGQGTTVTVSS
VL: SYELTQSPSVSVAPGQTARITCGGNNIGSKSVHWYQRKPGQAPVLVVYDDSDRPSGIPERFSGSNSGNTATLTISRVEAGDEADYYCQVWDNNSDHLVFGGGTKLTVL
B1: the EC50 in the test with SARS-CoV-2 RBD (RBD-2) [1] was 0.019 µg/mL; in the test with SARS-CoV-1 RBD (RBD-1), greater than 50 µg/mL. Besides, the “Maximum Plateau of Neutralization” value in [2] came to 50%. For the same molecule, the “PSV neutralization IC50” value in test [2] was greater than 50 µg/mL; in [3] it was greater than 50 µg/mL; in test [6], 0.051 µg/mL; in test [7], greater than 50 µg/mL. The Kd in the test with SARS-CoV-2 RBD (RBD-2) [4] came to 26 nM. This molecule also showed a koff in the test with SARS-CoV-2 RBD (RBD-2) [4] of 0.0115 s⁻¹. The molecule further gave a kon in the test with SARS-CoV-2 RBD (RBD-2) [4] of 443000 M⁻¹ s⁻¹. Further, the “% inhibition of RBD binding to hACE2” value in the test with SARS-CoV-2 RBD (RBD-2) [5] was -44.2%; with SARS-CoV-2 RBD (RBD-2) [8] it was -46.7%. Besides, the “MFI (RBD binding to cell surface)” value stood at 16100 with SARS-CoV-2 RBD (RBD-2) [5] and 16400 in the test with SARS-CoV-2 RBD (RBD-2) [8].

B2: L12.bP11G07 (antibody, V domains shown)
VH: QVQLVESGGGLIQPGGSLRLSCAASGFTVSSNYMSWVRQAPGKGLEWVSVIYSGGSTFYADSVKGRFTISRDNSKSTLYLQMNSLRVEDTAVYYCARDFGDFYFDYWGQGTLVTVSS
VL: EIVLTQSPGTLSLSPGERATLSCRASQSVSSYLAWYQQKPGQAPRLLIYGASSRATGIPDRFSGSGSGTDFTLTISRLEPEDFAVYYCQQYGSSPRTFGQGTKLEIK
notes: human IgG1
As for B2, the EC50 was 0.025 µg/mL with SARS-CoV-2 RBD (RBD-2) [1] and greater than 50 µg/mL with SARS-CoV-1 RBD (RBD-1). In addition, the “Maximum Plateau of Neutralization” value in test [2] was found to be 100%. Besides, the “PSV neutralization IC50” value in test [2] is 0.018 µg/mL; in test [3], greater than 50 µg/mL; in test [6] it was 0.013 µg/mL; in test [7], greater than 50 µg/mL. Further, in the test with SARS-CoV-2 RBD (RBD-2) [4], the affinity, expressed as Kd, was 8.59 nM. In the test with SARS-CoV-2 RBD (RBD-2) [4], this molecule came in with a koff of 0.00342 s⁻¹. The kon with SARS-CoV-2 RBD (RBD-2) [4] is 399000 M⁻¹ s⁻¹. Further, the “% inhibition of RBD binding to hACE2” value is 86.8% in the test with SARS-CoV-2 RBD (RBD-2) [5] and 91.9% in the test with SARS-CoV-2 RBD (RBD-2) [8]. Also, the “MFI (RBD binding to cell surface)” value in the test with SARS-CoV-2 RBD (RBD-2) [5] came to 1550; with SARS-CoV-2 RBD (RBD-2) [8], 982.

B3: L12.cP08D10 (antibody, V domains shown)
VH: EVQLVQSGAEVKKPGASVKVSCKASGYIFSGYYMHWVRQAPGQGLEWMGWISPDSGGTNYAQNFQGRVTMTRDTSISTGYMELSRLRSDDTAMYYCARGPRYSGTYFDYWGQGVLVTVSS
VL: QSVLTQPASVSGSPGQSITISCTGTSSDVGGYNYVSWYQQHPGKVPKLMIYDVSNRPSGVSNRFSGSKSGNTASLTISGLQAEDEADYYCSSYTSSSAQVFGGGTKLTVL
notes: human IgG1
In the case of B3, the half-maximal effective concentration (EC50) with SARS-CoV-2 RBD (RBD-2) [1] and with SARS-CoV-1 RBD (RBD-1) was greater than 50 µg/mL throughout. The “Maximum Plateau of Neutralization” value in test [2] worked out at 60%. Besides, the “PSV neutralization IC50” value is 23.5 µg/mL in [2], greater than 50 µg/mL in test [3], 4.3 µg/mL in [6] and greater than 50 µg/mL in test [7]. Moreover, the Kd with SARS-CoV-2 RBD (RBD-2) [4] was greater than 500 nM. In addition, in the test with SARS-CoV-2 RBD (RBD-2) [4], the koff was 0.312 s⁻¹. The kon in the test with SARS-CoV-2 RBD (RBD-2) [4] was 59400 M⁻¹ s⁻¹. Further, the “% inhibition of RBD binding to hACE2” value amounted to 6.1% with SARS-CoV-2 RBD (RBD-2) [5] and 13.2% with SARS-CoV-2 RBD (RBD-2) [8]. Also, the entries for the “MFI (RBD binding to cell surface)” value in the test with SARS-CoV-2 RBD (RBD-2) [5] and with SARS-CoV-2 RBD (RBD-2) [8] were 10500 and 9710, respectively.

B4: L12.cP09D05 (antibody, V domains shown)
VH: QVQLVESGGGLVKPGGSLRLSCAASGFTFNYYSMNWVRQAPGKGLEWISSISTSSSFVYYADSVKGRFTISRDNAKTSLYLQMNSLRAEDTAVYFCARGGYCSDGSCYVQDRLIYYYSGLDVWGQGTTVTVSS
VL: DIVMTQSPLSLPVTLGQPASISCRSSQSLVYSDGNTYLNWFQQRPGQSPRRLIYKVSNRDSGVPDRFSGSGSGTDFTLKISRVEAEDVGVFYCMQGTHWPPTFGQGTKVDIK
notes: human IgG1
In the case of B4, the figures for the EC50 with SARS-CoV-2 RBD (RBD-2) [1] and with SARS-CoV-1 RBD (RBD-1) were 0.039 µg/mL and greater than 50 µg/mL, respectively. For the same molecule, the “Maximum Plateau of Neutralization” value in [2] stood at 100%. In addition, the “PSV neutralization IC50” value in test [2] was 0.023 µg/mL; in test [3] it was greater than 50 µg/mL; in test [6], 0.008 µg/mL; in test [7], greater than 50 µg/mL. The same molecule returned a dissociation constant Kd with SARS-CoV-2 RBD (RBD-2) [4] of 36.2 nM. In the test with SARS-CoV-2 RBD (RBD-2) [4], this molecule showed an off-rate constant (koff) of 0.0157 s⁻¹. For the same molecule, the kon with SARS-CoV-2 RBD (RBD-2) [4] stood at 435000 M⁻¹ s⁻¹. The “% inhibition of RBD binding to hACE2” value with SARS-CoV-2 RBD (RBD-2) [5] stood at 75.4%; with SARS-CoV-2 RBD (RBD-2) [8], 80.6%. In addition, the “MFI (RBD binding to cell surface)” value with SARS-CoV-2 RBD (RBD-2) [5] was determined as 2810; with SARS-CoV-2 RBD (RBD-2) [8], 2230.

B5: L6.dP02E05 (antibody, V domains shown)
VH: QVQLVQSGSELKKPGASVKVSCKASGYTFATYALNWVRQAPGQGLEWMGWVNTNTGSPTYAQGFTGRFVFSFDTSVSTAYLQIRTLKAEDTAVYYCAVYYYDSGSPGWFDPWGQGTLVTVSS
VL: DIQLTQSPSSLSASVGDRVTITCRASQTASSYLNWYQQKPGKAPNLLIYAASSLQSGVPSRFSGSGSVTDFTLTISSLQPEDFATYYCQQSYSTPPTFGQGTKVDIK
notes: human IgG1
As to B5, the “neutralization IC50” value in [9] stood at 0.0075 µg/mL. Besides, the values for the EC50 with SARS-CoV-2 RBD (RBD-2) [1] and with SARS-CoV-1 RBD (RBD-1) were 0.015 µg/mL and greater than 50 µg/mL, respectively. In addition, the “Maximum Plateau of Neutralization” value in test [2] was found to be 100%. The “PSV neutralization IC50” value in [2] was 0.002 µg/mL; in [3], greater than 50 µg/mL.

B6: L12.cP07E10 (antibody, V domains shown)
VH: EVQLVESGGGLIQPGGSLRLSCAASGFTVSSNYMSWVRQAPGKGLEWVSVIYSGGSTYYADSVKGRFTISRDNSKNTLYLQMNSLRAEDTAVYYCARDPYGYSSIWDGQGGHWGQGTLVTVSS
VL: DVVMTQSPSSLSASVGDRVTITCQASQDISNYLNWYQQKPGKAPKLLIYDASNFATGVPSRFSGTGSGTDFTFTISSLQPEDIATYYCQQYDNLPITFGQGTRLEIK
notes: human IgG1
For B6, the EC50 in the test with SARS-CoV-2 RBD (RBD-2) [1] is 0.058 µg/mL; with SARS-CoV-1 RBD (RBD-1), greater than 50 µg/mL. Further, in [2], the “Maximum Plateau of Neutralization” value is 100%. For the same molecule, the “PSV neutralization IC50” value in test [2] is 0.1 µg/mL; in [3], greater than 50 µg/mL; in [6], 0.029 µg/mL; in [7], greater than 50 µg/mL. For the same molecule, the Kd with SARS-CoV-2 RBD (RBD-2) [4] is 2.6 nM. In the test with SARS-CoV-2 RBD (RBD-2) [4], this molecule registered a koff of 0.000364 s⁻¹. Moreover, in the test with SARS-CoV-2 RBD (RBD-2) [4], the kon came out at 140000 M⁻¹ s⁻¹. Moreover, the “% inhibition of RBD binding to hACE2” value was determined as 98.6% with SARS-CoV-2 RBD (RBD-2) [5] and 99.1% with SARS-CoV-2 RBD (RBD-2) [8]. For the same molecule, the “MFI (RBD binding to cell surface)” value with SARS-CoV-2 RBD (RBD-2) [5] turned out to be 237; with SARS-CoV-2 RBD (RBD-2) [8], 178.

B7: L12.bP11A11 (antibody, V domains shown)
VH: QVQLVQSGAEVKKPGASVKVSCKASGYTFTGYYMHWVRQAPGQGLEWMGWISPNSGGTNYAQKFQGWVTMTRDTSVSTAYMELSRLRFDDTAVYYCATESWVYGSGSYSSGAFDIWGQGTMVTVSS
VL: QSVLTQPPSASGSPGQSVTISCTGTSSDVGGYDYVSWYQQHPGKAPKLMIYEVSKRPSGVPDRFSGSKSGNTASLTVPGLQAEDEADYYCTSYAGSNNFVFGGGTKLIVL
notes: human IgG1
As to B7, the half-maximal effective concentration (EC50) with SARS-CoV-2 RBD (RBD-2) [1] is 1.9 µg/mL; with SARS-CoV-1 RBD (RBD-1), greater than 50 µg/mL. Moreover, in [2], the “Maximum Plateau of Neutralization” value was 100%. Further, the “PSV neutralization IC50” value is 0.11 µg/mL in test [2], greater than 50 µg/mL in test [3], 0.016 µg/mL in test [6] and greater than 50 µg/mL in test [7]. Also, binding with SARS-CoV-2 RBD (RBD-2) [4] was characterised by a dissociation constant (Kd) of 170 nM. Also, the koff in the test with SARS-CoV-2 RBD (RBD-2) [4] was 0.066 s⁻¹. The same molecule had a kon with SARS-CoV-2 RBD (RBD-2) [4] of 388000 M⁻¹ s⁻¹. Also, the “% inhibition of RBD binding to hACE2” value was 43.6% in the test with SARS-CoV-2 RBD (RBD-2) [5] and 53.9% with SARS-CoV-2 RBD (RBD-2) [8]. Besides, the “MFI (RBD binding to cell surface)” value in the test with SARS-CoV-2 RBD (RBD-2) [5] is 6330; with SARS-CoV-2 RBD (RBD-2) [8], 5190.
